Columns and labels:
[1] = target: T1, MICB*005α3-Fc fusion protein; assay: ELISA, MICB*005α3-Fc coated
T1 construct: also called MICBα3*005 variant
Text: (§1) The binding characteristics of the MICA antibody and the α3 domains of MICA and MICB was detected by ELISA in this example. The obtained various MICA, MICB variant extracellular region α3 domains (MICAα3*-002, 004, 005, 008, MICBα3*-005) Fc fusion proteins (MICAα3-Fc, MICBα3-Fc) and control antibody IgG were coated into a 96-well plate by the inventors. The signal strength after antibody addition was used to determine the binding characteristics of the antibody to MICA and MICB.
(§2) The fusion protein (MICA*002α3-Fc, amino acid sequence is as set forth in SEQ ID NO: 33; MICA*004α3-Fc, the amino acid sequence is as set forth in SEQ ID NO: 34; MICA*005α3-Fc, the amino acid sequence is as set forth in SEQ ID NO: 35; MICA*008α3-Fc, the amino acid sequence is as set forth in SEQ ID NO: 36; MICB*005α3-Fc, the amino acid sequence is as set forth in SEQ ID NO: 37) was diluted to 1 μg/ml with the PBS buffer and added to a 96-well plate in a volume of 100 μL/well and left overnight at 4° C. The PBS buffer solution was sucked off from the 96-well plate. The plate was washed 6 times with PBST (pH 7.2, PBS containing 0.1% Tween 20) buffer solution. 200 μL/well PBS/10% BSA was added and incubated at 37° C. for 2 hours for blocking. The blocking solution was removed. The plate was washed 6 times with PBST. […] The absorbance at […] was read with a microplate reader. […]

[2] = target: T2, MICA*008α3-Fc fusion protein; assay: ELISA, MICA*008α3-Fc coated
T2 construct: also called MICAα3*008 variant
T2 sequence (chain, as listed by the source limits assumed): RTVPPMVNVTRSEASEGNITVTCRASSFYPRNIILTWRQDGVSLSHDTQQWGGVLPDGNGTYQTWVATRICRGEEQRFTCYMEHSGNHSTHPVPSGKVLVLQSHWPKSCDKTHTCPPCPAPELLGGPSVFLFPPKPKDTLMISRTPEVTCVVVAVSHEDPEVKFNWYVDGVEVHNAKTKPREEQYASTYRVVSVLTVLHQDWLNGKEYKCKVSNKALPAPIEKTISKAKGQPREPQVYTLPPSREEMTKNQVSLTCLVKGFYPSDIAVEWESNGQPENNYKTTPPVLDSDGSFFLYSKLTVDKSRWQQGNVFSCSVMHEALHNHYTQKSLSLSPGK
Text: as §1, §2

[3] = target: T3, MICA expressed on CHO-K1-MICA cells (human, UniProt Q29983 24-383); assay: Western blot of CHO-K1-MICA lysate
T3 construct: Full-length entry as expressed from the lentiviral vector
T3 sequence: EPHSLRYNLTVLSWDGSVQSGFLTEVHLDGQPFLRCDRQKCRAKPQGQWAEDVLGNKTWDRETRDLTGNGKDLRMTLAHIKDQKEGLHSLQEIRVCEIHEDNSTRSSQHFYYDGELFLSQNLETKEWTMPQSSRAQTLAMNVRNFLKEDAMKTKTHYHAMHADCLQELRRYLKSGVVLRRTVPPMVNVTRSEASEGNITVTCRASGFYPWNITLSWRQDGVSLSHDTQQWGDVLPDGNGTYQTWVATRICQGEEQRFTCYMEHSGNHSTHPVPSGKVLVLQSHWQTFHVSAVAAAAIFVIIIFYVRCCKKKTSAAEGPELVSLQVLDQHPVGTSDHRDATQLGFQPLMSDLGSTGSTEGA
Description: The Western blot assay was used to determine the antigenic epitope characteristics of the MICA antibody.
CHO-K1-MICA, CHO-K1 cells constructed in Example 4 were washed twice with PBS. The RIPA lysate was then added for lysis for 15 min on ice. After 5 min of centrifugation at 15,000 g at 4° C., the supernatant was collected. The lysate supernatant was subjected to protein quantification using a BCA kit. Sample was then prepared with SDS-PAGE loading buffer and the sample addition amount is 50 μg/well. After electrophoresis, the sample was transferred to a nitrocellulose membrane and blocked with 5% nonfat dried milk at room temperature for 1 h. MICA antibody diluted at 1:2000 (w/v) was then added and incubated overnight at 4° C. The membrane was washed 5 min×6 times with 1%% PBST, then HRP-goat anti-mouse IgG diluted at 1:5000 (v/v) was added and incubated at room temperature for 1 h. The membrane was washed 5 min×6 times with 1%% PBST. Chemiluminescence was detected using ECL substrate development. The results are shown in FIG. 8, further showing that the antibody of the present disclosure can bind to a linear epitope of MICA protein.

[4] = target: T4, MICA*002α3-Fc fusion protein; assay: ELISA, MICA*002α3-Fc coated
T4 construct: also called MICAα3*002 variant
T4 sequence (chain, as listed by the source limits assumed): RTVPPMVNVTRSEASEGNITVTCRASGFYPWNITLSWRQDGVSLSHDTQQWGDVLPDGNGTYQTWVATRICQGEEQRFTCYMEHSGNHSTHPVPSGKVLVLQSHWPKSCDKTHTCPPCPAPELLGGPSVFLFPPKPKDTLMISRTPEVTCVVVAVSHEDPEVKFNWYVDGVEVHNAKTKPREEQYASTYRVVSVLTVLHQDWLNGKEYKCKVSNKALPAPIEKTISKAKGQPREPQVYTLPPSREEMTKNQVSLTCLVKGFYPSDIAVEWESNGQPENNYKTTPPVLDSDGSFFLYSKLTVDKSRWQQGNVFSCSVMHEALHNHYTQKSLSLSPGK
Text: as §1, §2

[5] = target: T5, MICA*004α3-Fc fusion protein; assay: ELISA, MICA*004α3-Fc coated
T5 construct: also called MICAα3*004 variant
T5 sequence (chain, as listed by the source limits assumed): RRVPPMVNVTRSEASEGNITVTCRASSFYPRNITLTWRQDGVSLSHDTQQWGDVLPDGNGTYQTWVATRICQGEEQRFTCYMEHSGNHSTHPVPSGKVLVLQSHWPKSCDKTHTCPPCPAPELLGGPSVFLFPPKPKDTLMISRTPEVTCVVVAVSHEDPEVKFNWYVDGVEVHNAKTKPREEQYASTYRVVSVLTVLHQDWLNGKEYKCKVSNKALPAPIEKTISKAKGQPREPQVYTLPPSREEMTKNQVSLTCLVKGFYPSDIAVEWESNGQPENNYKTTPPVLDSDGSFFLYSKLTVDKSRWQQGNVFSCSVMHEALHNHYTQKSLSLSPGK
Text: as §1, §2

[6] = target: T6, recombinant MICA extracellular region Fc fusion protein (MICA-Fc) (human); assay: ELISA, MICA-Fc coated
T6 construct: also called human MICA
Description: The ELISA assay was used to detect the binding characteristics of the MICA antibody obtained in Example 1. The MICA extracellular region Fc fusion protein (MICA-Fc) as described above was coated into a 96-well plate. The signal strength after antibody addition was used to determine the binding characteristics of the antibody to MICA.
The MICA-Fc fusion protein (amino acid sequence as set forth in SEQ ID NO: 23) was diluted to 1 μg/mL with PBS buffer and added to a 96-well plate in a volume of 100 μL/well and left overnight at 4° C. The PBS buffer solution was sucked off from the 96-well plate. The plate was washed 6 times with PBST (pH 7.2, PBS containing 0.1% Tween 20) buffer solution. 200 μL/well PBS/10% BSA was added and incubated at 37 °C for 2 hours for blocking. The blocking solution was removed. The plate was washed 6 times with PBST. The MICA antibody to be tested was diluted to an appropriate concentration with 100 μL/well PBST/0.05% BSA, and incubated for 1 h at 37° C. The reaction system was removed. The plate was washed 6 times with PBST. HRP (horseradish peroxidase)-labeled anti-mouse antibody secondary antibody (Boster, BA1050) was diluted with PBST/0.05% BSA at 100 μL/well and incubated for 1 h at 37° C. After the incubation, the plate was washed 6 times with PBST, and 80 μL/well TMB (tetramethylbenzidine) was added. […] The absorbance at […] was read with a microplate reader.

[7] = target: T7, MICA extracellular domain α3 domain Fc fusion protein (MICA α3-Fc) (human); assay: ELISA, MICAα3-Fc coated
T7 construct: also called MICA α3 domain
T7 sequence (chain, as listed by the source limits assumed): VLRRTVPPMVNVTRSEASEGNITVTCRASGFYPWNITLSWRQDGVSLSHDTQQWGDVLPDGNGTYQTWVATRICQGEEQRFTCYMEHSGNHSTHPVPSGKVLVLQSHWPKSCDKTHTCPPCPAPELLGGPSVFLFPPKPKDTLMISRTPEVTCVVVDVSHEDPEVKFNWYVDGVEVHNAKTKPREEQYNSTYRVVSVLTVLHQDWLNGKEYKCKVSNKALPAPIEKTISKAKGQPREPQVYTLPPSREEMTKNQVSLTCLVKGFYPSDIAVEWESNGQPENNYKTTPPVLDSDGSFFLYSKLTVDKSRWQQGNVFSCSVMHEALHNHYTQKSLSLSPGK
Description: The MICAα3-Fc fusion protein (amino acid sequence as set forth in SEQ ID NO: 24) was diluted to 1 μg/mL with PBS buffer and added to a 96-well plate in a volume of 100 μL/well and left overnight at 4° C. The PBS buffer solution was sucked off from the 96-well plate. The plate was washed 6 times with PBST (pH 7.2, PBS containing 0.1% Tween 20) buffer solution. 200 μL/well PBS/10% BSA was added and incubated at 37 °C for 2 hours for blocking. The blocking solution was removed. The plate was washed 6 times with PBST. The MICA antibodies to be tested were diluted to an appropriate concentration with 100 µL/well PBST/0.05% BSA, and incubated at 37 °C for 1 h. The reaction system was removed. The plate was washed 6 times with PBST. HRP (horseradish peroxidase)-labeled anti-mouse antibody secondary antibody (Boster, BA1050) was diluted with PBST/0.05% BSA at 100 μL/well and incubated for 1 h at 37° C. The plate was washed 6 times with PBST, and 80 μL/well TMB (tetramethylbenzidine) was added. After 3 min of incubation at room temperature, and 80 μL/well 4M sulfuric acid was added to terminate the reaction. The absorbance at […] was read with a microplate reader.

Measured: binding result

T1 sequence (chain, as listed by the source limits assumed): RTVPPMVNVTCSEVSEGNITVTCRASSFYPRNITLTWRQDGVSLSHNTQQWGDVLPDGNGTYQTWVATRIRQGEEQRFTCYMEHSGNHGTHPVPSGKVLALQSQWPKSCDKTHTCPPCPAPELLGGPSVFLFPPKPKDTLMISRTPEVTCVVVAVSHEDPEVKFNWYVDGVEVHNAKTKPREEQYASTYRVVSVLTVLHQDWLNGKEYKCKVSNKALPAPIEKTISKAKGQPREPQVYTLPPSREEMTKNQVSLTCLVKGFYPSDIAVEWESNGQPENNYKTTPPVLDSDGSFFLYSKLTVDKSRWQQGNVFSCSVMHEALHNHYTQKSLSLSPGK

B1: MICA antibody 5A1 (murine monoclonal antibody against human MICA) (antibody, V domains shown)
VH: QVQLKQSGPGLVQPSQSLSITCIVSGFSLTTYGVHWVRQSPGKGLEWLGMIWTDGTTDYNAAFISRLSINKDNSKSQVFLKMNSLQADDTGIYYCVRKGHGYYYAMDYWGQGTSVTVSS
VL: QILLTQSPAILSASLGERVTMTCTASSSVSSSYLHWYQQKPGSSPKLWIYSTSNLASGVPARFSGGGSGTSYSLTVSNMEAEDAATYYCHQYHRSPFTFGSGTKLEIK
notes: Murine monoclonal antibody from a hybridoma; also called No. 5A1; the antibody of the present disclosure
binds: [1] | [2] | [3] | [4] | [5] | [6] | [7]

Reference: patent US20240166752A1 (HEFEI TG IMMUNOPHARMA, published 2024)
